Assay results as given in paper PMC8316464.

Key:
Experiment in all cases: SPR; Biacore S200; Bcl-2 family proteins immobilised on CM5 (amine coupling or His-Capture Kit); peptides and flag-tagged proteins as analytes, single-cycle kinetics, HBS-EP, 25 °C; 1:1 Langmuir model; absence of binding probed at 100 nM and 3 µM
Bcl-2 (human) = Bcl-2 (human) (UniProt P10415)
Bcl-xL (human) = Bcl-xL (human) (UniProt Q07817)
[1] = biological target: His-tagged human Mcl-1 (human) (UniProt Q07820)
Chain of His-tagged human Mcl-1 (human) (Q07820 whole entry): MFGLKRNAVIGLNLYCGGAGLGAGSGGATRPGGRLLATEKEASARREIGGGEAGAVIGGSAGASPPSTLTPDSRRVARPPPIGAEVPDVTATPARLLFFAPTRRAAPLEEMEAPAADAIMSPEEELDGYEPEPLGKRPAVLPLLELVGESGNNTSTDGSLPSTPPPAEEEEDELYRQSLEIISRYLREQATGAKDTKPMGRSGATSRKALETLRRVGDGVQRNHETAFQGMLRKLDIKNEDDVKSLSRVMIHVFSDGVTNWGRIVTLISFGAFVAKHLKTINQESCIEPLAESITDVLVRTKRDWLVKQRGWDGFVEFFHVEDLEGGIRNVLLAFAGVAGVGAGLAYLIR

Chain of Bcl-xL (human) (Q07817 whole entry): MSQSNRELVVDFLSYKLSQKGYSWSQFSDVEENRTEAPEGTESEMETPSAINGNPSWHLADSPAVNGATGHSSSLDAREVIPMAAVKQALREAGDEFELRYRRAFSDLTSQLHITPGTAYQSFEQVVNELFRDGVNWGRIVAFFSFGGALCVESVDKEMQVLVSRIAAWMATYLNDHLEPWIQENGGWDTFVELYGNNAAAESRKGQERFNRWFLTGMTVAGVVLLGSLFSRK

Kd (Bcl-2 (human)) [nM]	Kd (Bcl-xL (human)) [nM]	Kd [1] [nM]	Binder
96.7	7.12	12.8	ESQEDIIRNIARHLAQVGDSMDRSI [Bid BH3 peptide (25-mer, residues 77-101)]
158	28.5		ESQEDIIRNIIRHLAQVGDSMDRSI [Bid (A87I) peptide]
